Drawing on the supplement of paper PMC12042874, this text covers amyloid nucleation score for 130 substances.

± gives the uncertainty stated by the source.

The series in a line: amyloid nucleation score (Sup35N fusion, yeast selection) (log enrichment); library NNK3; higher = more nucleation; inactive = no reads after selection. The essentials: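 The nucleation score, computed with DiMSum, is the log enrichment of output over input reads, centred on the mode score of non-aggregating sequences. Sequences with under 100 input reads were dropped. Reads were generated by Illumina sequencing of plasmid inserts from psi-negative yeast with Sup35N fused to peptides of 20 random codons, induced with 100 μM copper sulfate for 24 hours and grown 7 days at 30°C on medium lacking adenine and uracil.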
In the case of EILSPVGTSTCILTSPRTCY, the amyloid nucleation score result was “inactive”.

EINFMKRASRVRLKQYNQ displayed an amyloid nucleation score of 0.64 ± 0.26.

With EINMKSLV, the amyloid nucleation score result is “inactive”.

Regarding EIWSDKCSTRSMLHPAYIMY, the amyloid nucleation score entry is “inactive”.

In the case of EKDMFQNVLLVKAYD, the amyloid nucleation score entry is “inactive”.

For EKFTMLARSKAAICLVDKSC, the amyloid nucleation score was -0.463 ± 0.93.

With EKRYRPEKTF, the amyloid nucleation score result was “inactive”.

In the case of ELAFMNYYNNECSRPLLSSP, the amyloid nucleation score result was “inactive”.

For ELDAYIRRGLCSLKWCRKLN, the amyloid nucleation score entry is “inactive”.

ELHYPVLVDS: the amyloid nucleation score entry was “inactive”.

For ELIDFTIGLL, the amyloid nucleation score entry is “inactive”.

With ELMHFLAFVGDAMYVLSGII, the amyloid nucleation score entry is “inactive”.

As to ELNWWHLLVICCVYYFMVLF, the amyloid nucleation score result was “inactive”.

For ELRSHKLMMGRQYLHRLCSV, the amyloid nucleation score entry is “inactive”.

In the case of ELSSLSFHIHNMEFREKVKG, the amyloid nucleation score result is “inactive”.

On to ELVVTNVNGFLMW, for which the amyloid nucleation score entry is “inactive”.

As to ELYSDG, the amyloid nucleation score result is “inactive”.

For EMGEGIL, the amyloid nucleation score entry is “inactive”.

Turning to EMTMTWCMVVRLVWVTNGIL, the amyloid nucleation score entry was “inactive”.

EMVLGWSARFCDK showed an amyloid nucleation score of 1.65 ± 0.088.

As to ENLSEVWLSYVDSLSIYVLS, the amyloid nucleation score entry was “inactive”.

For ENNVRTVHVISWAIFLSTYF, the amyloid nucleation score result was “inactive”.

Turning to ENVARGAMFCPMHRGFQSSE, the amyloid nucleation score result is “inactive”.

As for ENWDSILCKWRGAGMRGSAW, the amyloid nucleation score result was “inactive”.

As for EPDFEHIVCAFMGSTTGYYW, the amyloid nucleation score entry is “inactive”.

Substance EPNVFSSLGILNINVVALWL yielded an amyloid nucleation score of 0.98 ± 0.2.

Take EQIPMKSVEGEYWLTVIVGN: the amyloid nucleation score entry was “inactive”.

In the case of EQMWFEVCYGCRSCSEALLR, the amyloid nucleation score result was “inactive”.

For the substance ERHDGCFQ, the amyloid nucleation score entry was “inactive”.

Regarding ERNNKCDNTVLMKREELQG, the amyloid nucleation score entry was “inactive”.

Consider ERQNMSYMGHKKEYLNHYFW, for which the amyloid nucleation score result is “inactive”.

With ERRIPRSNLKRRSKLSKFPA, the amyloid nucleation score entry is “inactive”.

With ERRVLISERAQWISLLYGIL, the amyloid nucleation score result is “inactive”.

Consider ERSFAYDYDCSVCFTHAFAT, for which the amyloid nucleation score result is “inactive”.

Regarding ERTSYSC, the amyloid nucleation score result is “inactive”.

Regarding ESAYFLAYLQVLLWRVMGEL, the amyloid nucleation score result is “inactive”.

Regarding ESKMGCP, the amyloid nucleation score result was “inactive”.

Take ESMTSNYYQMIGVFCEMLVR: the amyloid nucleation score entry was “inactive”.

With ESNDIIINV, the amyloid nucleation score entry was “inactive”.

As to ESNRTFTKSTFFLTNEVKGL, the amyloid nucleation score entry was “inactive”.

ESPNGFFGSMDVCVLPRGSV: the amyloid nucleation score result is “inactive”.

In the case of ESRFCTYVSSRDYISTIQFN, the amyloid nucleation score result is “inactive”.

Take ESSISTLFIFNMVGPQ: the amyloid nucleation score amounted to 2.21 ± 0.068.

Turning to ETDYVGRFALMKYDGLVYI, the amyloid nucleation score entry is “inactive”.

In the case of ETGLLFGWDRVSSYWGVLKT, the amyloid nucleation score result was “inactive”.

As to ETRMGTK, the amyloid nucleation score entry was “inactive”.

With ETTYGFDKIYGVEYVCGLCR, the amyloid nucleation score result is “inactive”.

The substance ETYNRR gave an amyloid nucleation score of -0.227 ± 0.69.

For the substance EVGDPMYRTIGVKFGPLAME, the amyloid nucleation score result is “inactive”.

EVGVTSLTIGHVT yielded an amyloid nucleation score of 1.29 ± 0.096.

EVLGSLFYFGYTTGLFIPF: the amyloid nucleation score entry is “inactive”.

On to EVLSNDGAGLFFHGKKCMYI, for which the amyloid nucleation score entry was “inactive”.

In the case of EVQEKAEHHVLVGRVANPRF, the amyloid nucleation score result is “inactive”.

In turn, EVSIKAVDWRVSDVTVARTC had an amyloid nucleation score of -0.228 ± 0.93.

With EVSSGCCERGVYLMLLCTGT, the amyloid nucleation score turned out to be 0.091 ± 0.53.

For the substance EVYKYKSEERMVAST, the amyloid nucleation score result is “inactive”.

In turn, EYIAFISTIPDMSLFSDVLF had an amyloid nucleation score of 0.653 ± 0.11.

EYKRTSMVVQFSCSAYILTF: the amyloid nucleation score result is “inactive”.

Turning to EYMYIYPPFPMPWDDG, the amyloid nucleation score entry was “inactive”.

Turning to EYQTNNDYLQLTCLKSSWSS, the amyloid nucleation score result was “inactive”.

For EYYGRVLSLTVTNIHFFRVF, the amyloid nucleation score entry is “inactive”.

Turning to EYYLDMDLMFMMG, the amyloid nucleation score entry is “inactive”.

Consider FAGCWTVTSMGFCNRSGMKL, for which the amyloid nucleation score result is “inactive”.

On to FAGESN, for which the amyloid nucleation score result was “inactive”.

Consider FARKWCVKNGYGSRTSASFM, for which the amyloid nucleation score entry was “inactive”.

For FASIYNFHDRIVSLRDQGR, the amyloid nucleation score result is “inactive”.

For the substance FAYLVS, the amyloid nucleation score entry was “inactive”.

As for FCARYLFCLISGDYS, the amyloid nucleation score entry is “inactive”.

For FCGIYCKAINSFAVDLMPWI, the amyloid nucleation score entry was “inactive”.

Consider FCHRYEMYIELTYTEGA, for which the amyloid nucleation score entry is “inactive”.

In the case of FCLCAFSALQRVYI, the amyloid nucleation score entry is “inactive”.

Take FCLVFSELILFCVCSWVNST: the amyloid nucleation score entry was “inactive”.

In the case of FCRCKLFFAGCF, the amyloid nucleation score is 1.08 ± 0.13.

Turning to FCRHVKFYRMRAACVDNRRI, the amyloid nucleation score result is “inactive”.

On to FDGYCFFYYWLGVWWSTSI, for which the amyloid nucleation score entry was “inactive”.

As for FDKTCGSSRNLSRAWDNLTF, the amyloid nucleation score entry was “inactive”.

Take FDVNIPFCSNSFSYHTNSGS: the amyloid nucleation score result was “inactive”.

Regarding FECGRFMGLVVLAVRSGNVM, the amyloid nucleation score entry was “inactive”.

As to FEDLKTDSILYQFSRAYGDW, the amyloid nucleation score entry is “inactive”.

FEETIINFCRYLFMMFTGVV came in with an amyloid nucleation score of 1.87 ± 0.1.

On to FEIRLFISGQDQAHGCCPWY, for which the amyloid nucleation score result was “inactive”.

In the case of FELDIAYTEVLAVDCIPVVL, the amyloid nucleation score result is “inactive”.

Consider FEYNRQYTRLSSVRVRIRGS, for which the amyloid nucleation score result was “inactive”.

In the case of FFADGARVYFANHVSKAFWF, the amyloid nucleation score was found to be 1.96 ± 0.083.

FFARMTALPLLQILYGSLRA: the amyloid nucleation score result was “inactive”.

As for FFCRKAHLMVVFFSSMRMTG, the amyloid nucleation score result is “inactive”.

For FFFKSLEVSVTQR, the amyloid nucleation score entry is “inactive”.

Take FFGKAT: the amyloid nucleation score entry is “inactive”.

In the case of FFISVLFWNPGISFRITIAA, the amyloid nucleation score entry is “inactive”.

As for FFLGVSDSMKFLYLMPTEFD, the amyloid nucleation score entry was “inactive”.

In the case of FFLMKDSLLSSVERSIGVIG, the amyloid nucleation score result is “inactive”.

As for FFLSFRYLKKFSRIGLW, the amyloid nucleation score result was “inactive”.

In the case of FFLTYTIECVGLNHMILSIM, the amyloid nucleation score entry is “inactive”.

As for FFLWVYLLKSFSS, the amyloid nucleation score result was “inactive”.

In turn, FFNIMCYRHWLKVKLYYIVK registered an amyloid nucleation score of 1.9 ± 0.06.

Regarding FFPMLIARMDALPRPVNLGY, the amyloid nucleation score result is “inactive”.

As to FFVKEFLVLDICGMTLPFDI, the amyloid nucleation score entry is “inactive”.

On to FFWKILALPSE, for which the amyloid nucleation score entry was “inactive”.

Consider FFYEPGVPRFYFQLFLLLSF, for which the amyloid nucleation score entry was “inactive”.

Take FFYYMYMFDVITILRVIMGC: the amyloid nucleation score entry is “inactive”.

Take FGAMGGCGNRWKFYQRFTDP: the amyloid nucleation score result was “inactive”.

On to FGAVVDYNFSN, for which the amyloid nucleation score is -0.695 ± 0.96.

For FGDAYM, the amyloid nucleation score entry is “inactive”.

In the case of FGFIILDLTR, the amyloid nucleation score result was “inactive”.

Turning to FGIEQTWSNECSVKTVEMRC, the amyloid nucleation score entry was “inactive”.

As to FGKGRHWISAPSRWVRGDFG, the amyloid nucleation score result is “inactive”.

Take FGLGQIRFSHIICLNLILSL: the amyloid nucleation score worked out at 2.29 ± 0.056.

Turning to FGMLFIWRK, the amyloid nucleation score result is “inactive”.

In the case of FGNGSMNRDRSSM, the amyloid nucleation score result was “inactive”.

FGPAMCYSLIVQLTSVYRGG: the amyloid nucleation score is 1.99 ± 0.087.

As to FGQGGALFLWKCMTYFILLG, the amyloid nucleation score entry was “inactive”.

As for FGRVNCSSNYRNKMISSTRW, the amyloid nucleation score result was “inactive”.

Regarding FGSPWPRLQMTQLLIVAMTL, the amyloid nucleation score result is “inactive”.

Take FGVTVSYKWWRWSPLSYCAM: the amyloid nucleation score entry was “inactive”.

Consider FHGKNVF, for which the amyloid nucleation score result was “inactive”.

Consider FHILIFVKTP, for which the amyloid nucleation score entry is “inactive”.

Consider FHLLPKMCLLLSTLIRSGIT, for which the amyloid nucleation score entry is “inactive”.

With FHVVFCDID, the amyloid nucleation score entry is “inactive”.

In the case of FHVYCVWVRTLSCWRENNVK, the amyloid nucleation score worked out at 1.5 ± 0.14.

Turning to FHYLMMTFIV, the amyloid nucleation score result was “inactive”.

Regarding FICHYEHKKVRHRVYAKAYI, the amyloid nucleation score entry was “inactive”.

Regarding FIDFGIWC, the amyloid nucleation score result is “inactive”.

Take FIDMLSYIAYIVLFFGASFV: the amyloid nucleation score entry was “inactive”.

In the case of FIERLARNQFLNAYSMLDCE, the amyloid nucleation score entry is “inactive”.

Turning to FIFYFCAVLNHYVCVWVRYL, the amyloid nucleation score result is “inactive”.

With FIGSGSHEIGGHINGKALSS, the amyloid nucleation score was found to be 0.644 ± 0.19.

In the case of FIIHHGVYYHAMFMDMLLLM, the amyloid nucleation score entry is “inactive”.

As for FILMLVTKLRAHLRGEIRGE, the amyloid nucleation score result was “inactive”.

FILSVSYIRVCGARC: the amyloid nucleation score came to 0.097 ± 0.48.

With FINFELLRSSSNNV, the amyloid nucleation score entry was “inactive”.
